This is an account of results in patent US20180282426A1 (NOVIMMUNE S A, published 2018).

The target in experiment [1] is T1, human TLR4 and human MD-2 on transiently transfected HEK 293 cells (human, UniProt O00206 24-839; Q9Y6Y9 19-160).
T1 construct: whole, on cells; also called human TLR4/MD-2 complex
Briefly: FACS on transiently transfected HEK 293 cells, 7E3 at 10 µg/ml. As for the experimental part: (§1) FIGS. 24A-24F is a series of graphs depicting the specificity of the 7E3 monoclonal antibody for the TLR4/MD-2 complex. The specificity of the 7E3 antibody is shown by flow cytometry analysis of HEK 293 cells transiently transfected with either mock vector (FIG. 24A), human TLR4 (FIG. 24B), human TLR4 and human MD-2 (FIG. 24C), rabbit TLR4 and rabbit MD-2 (FIG. 24D), human TLR4 and rabbit MD-2 (FIG. 24E), or rabbit TLR4 and human MD-2 (FIG. 24F). Cells were incubated with the 7E3 monoclonal antibody (10 μg/ml), followed by an APC-coupled α-mouse (H+L) antibody.
(§2) HEK 293 cells were plated in 6 well plates at a density of 2.5×10⁵ cells/well in 2 ml culture medium containing 10% FBS. 16 hours post-plating, cells were transfected with 0.75 μg of the appropriate vector(s) using Fugene™ reagent (Roche) according to the manufacturer's guidelines. 48 hours post-transfection, cells were stained with the appropriate monoclonal antibody (as indicated in FIGS. 4A-4L) and an APC-coupled goat anti-mouse IgG (H+L) antibody (Molecular Probes) and analyzed using the FACScalibur in the FL-4 channel.

Experiment [2] concerns the target T2, human TLR4/MD-2 complex on the surface of transfected CHO cells (human, UniProt O00206 24-839; Q9Y6Y9 19-160).
T2 construct: whole, on cells; also called TLR4/MD-2 transfected CHO cells; hTLR4/MD-2 transfected CHO cells
In words: flow cytometry, mock transfected vs. TLR4/MD-2 transfected cells.

Experiment [3] has as its target T3, human TLR4 alone in transfected HEK 293 cells (human, UniProt O00206 24-839).
T3 construct: whole, on cells; also called TLR4 alone in transfected cell lysates
Briefly: FACS on HEK 293 cells transfected with human TLR4 alone. As for the experimental part: as §1, §2

Experiment [4] has as its target T2, human TLR4/MD-2 complex on the surface …. In words: flow cytometry on TLR4/MD-2 transfected CHO cells, against an isotype matched control MAb. The source says: FIG. 26 is a graph illustrating that the VH and VL nucleotide sequence of 7E3 expressed as a chimeric MAb (“chimeric 7E3”) is capable of binding specifically to the human TLR4/MD-2 complex on the surface of transfected CHO cells. Monoclonal antibody binding to TLR4/MD-2 transfected CHO cells is shown by flow cytometry using chimeric 7E3 or an isotype matched control MAb at the indicated concentrations.
(§3) Specific binding of MAb at the indicated concentration was detected using an APC-labeled goat-anti-human IgG (H+L) secondary antibody. An irrelevant isotype-matched IgG1 MAb was used as a control.
On the technique in general: In flow cytometry, cells or beads pass a laser one at a time.

Experiment [5] concerns the target T3, human TLR4 alone in transfected HEK 293 …. Briefly: FACS on transiently transfected HEK 293 cells, 15C1 at 10 µg/ml. As for the experimental part:
(§4) FIGS. 17A-17F are a series of graphs depicting the specificity of the 15C1 monoclonal antibody for TLR4. The specificity of the 15C1 antibody is shown by flow cytometry analysis of HEK 293 cells transiently transfected with either mock vector, i.e., empty vector (FIG. 17A), human TLR4 (FIG. 17B), human TLR4 and human MD-2 (FIG. 17C), rabbit TLR4 and rabbit MD-2 (FIG. 17D), human TLR4 and rabbit MD-2 (FIG. 17E), or rabbit TLR4 and human MD-2 (FIG. 17F). Cells were incubated with the 15C1 monoclonal antibody (10 μg/ml), followed by an APC-coupled α-mouse (H+L) antibody.
as §2

For experiment [6], the target named is T1, human TLR4 and human MD-2 on …. The experiment is described as above. On the procedure:
as §4, §2

Experiment [7] concerns the target T2, human TLR4/MD-2 complex on the surface …. In words: flow cytometry on TLR4/MD-2 transfected CHO cells, against an isotype matched control monoclonal antibody.
Excerpt: FIG. 19 is a graph depicting that the VH and VL nucleotide sequence of 15C1 expressed as a chimeric MAb (“chimeric 15C1”) is capable of binding specifically to the human TLR4/MD-2 complex on the surface of transfected CHO cells. MAb binding to the TLR4/MD-2 complex is shown by flow cytometry using chimeric 15C1 or an isotype matched control monoclonal antibody at the indicated concentration.
as §3

Experiment [8] shares this target. In words: FACS of hybridoma supernatant on mock vs. TLR4/MD-2 transfected CHO cells. On the procedure: Mice immunized with CHO cells expressing surface TLR4/MD-2 were monitored for specific serum titers. […] This strategy was chosen in order to minimize the response to non-specific CHO cellular antigens, while simultaneously maximizing the TLR4/MD-2-specific response. Screening by FACS of supernatants from hybridomas resulting from B cell/myeloma fusions was performed on mock transfected vs. TLR4/MD-2 transfected CHO cells.

Experiment [9] deals with T1, human TLR4 and human MD-2 on …. Briefly: FACS on transiently transfected HEK 293 cells. On the procedure: FIGS. 4A-4L are a series of graphs depicting the specificity of the 18H10 monoclonal antibody for MD-2. The specificity of the 18H10 antibody is shown by flow cytometry analysis of HEK 293 cells transiently transfected with either human TLR4 and human MD-2 (FIG. 4A, FIG. 4E and FIG. 4I); rabbit TLR4 and rabbit MD-2 (FIG. 4B, FIG. 4F and FIG. 4J); human TLR4 and rabbit MD-2 (FIG. 4C, FIG. 4G and FIG. 4K); or rabbit TLR4 and human MD-2 (FIG. 4D, FIG. 4H and FIG. 4L). Cells were incubated with either α-FLAG™ antibody (to detect TLR4 expression); α-C-myc antibody (to detect MD-2 expression) or the 18H10 monoclonal antibody, followed by an APC-coupled α-mouse (H+L) antibody.
FIGS. 12A-12L is a series of graphs depicting the specificity of the 16G7 monoclonal antibody for TLR4. […]
HEK 293 cells were plated in 6 well plates at a density of 2.5×10⁵ cells/well in 2 ml culture medium containing 10% FBS. […] 48 hours post-transfection, cells were stained with the appropriate monoclonal antibody (as indicated in FIGS. 4A-4L) and an APC-coupled goat anti-mouse IgG (H+L) antibody (Molecular Probes) and analyzed using the FACScalibur in the FL-4 channel.

T1 sequence (O00206 24-839, chain 1 of 2): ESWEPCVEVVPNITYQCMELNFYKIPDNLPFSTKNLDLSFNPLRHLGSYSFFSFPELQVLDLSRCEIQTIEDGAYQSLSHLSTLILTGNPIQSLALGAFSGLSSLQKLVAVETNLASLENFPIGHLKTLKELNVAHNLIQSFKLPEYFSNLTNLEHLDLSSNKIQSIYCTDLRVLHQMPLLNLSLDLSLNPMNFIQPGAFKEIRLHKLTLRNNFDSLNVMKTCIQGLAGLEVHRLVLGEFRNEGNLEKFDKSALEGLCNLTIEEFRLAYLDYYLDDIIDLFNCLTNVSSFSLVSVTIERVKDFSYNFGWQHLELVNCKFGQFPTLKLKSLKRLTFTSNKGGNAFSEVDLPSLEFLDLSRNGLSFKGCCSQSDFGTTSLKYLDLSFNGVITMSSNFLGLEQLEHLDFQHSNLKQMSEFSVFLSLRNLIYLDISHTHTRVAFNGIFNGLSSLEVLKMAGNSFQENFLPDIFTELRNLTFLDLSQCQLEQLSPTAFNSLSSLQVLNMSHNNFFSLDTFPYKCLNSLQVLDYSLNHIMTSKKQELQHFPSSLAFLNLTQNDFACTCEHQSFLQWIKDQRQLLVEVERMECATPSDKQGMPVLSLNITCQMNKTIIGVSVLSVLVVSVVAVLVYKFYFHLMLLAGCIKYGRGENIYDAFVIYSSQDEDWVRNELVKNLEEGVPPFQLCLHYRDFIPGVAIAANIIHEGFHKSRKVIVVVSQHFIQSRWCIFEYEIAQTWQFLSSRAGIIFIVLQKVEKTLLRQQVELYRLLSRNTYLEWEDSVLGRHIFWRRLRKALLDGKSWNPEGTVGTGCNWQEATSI
T1 sequence (Q9Y6Y9 19-160, chain 2 of 2): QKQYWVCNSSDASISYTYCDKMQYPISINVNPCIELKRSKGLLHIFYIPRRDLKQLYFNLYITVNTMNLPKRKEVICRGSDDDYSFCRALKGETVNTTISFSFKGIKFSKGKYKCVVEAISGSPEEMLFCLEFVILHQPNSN
T2 sequence (O00206 24-839, chain 1 of 2): as the sequence (O00206 24-839, chain 1 of 2) above
T2 sequence (Q9Y6Y9 19-160, chain 2 of 2): as the sequence (Q9Y6Y9 19-160, chain 2 of 2) above
T3 sequence (O00206 24-839): as the sequence (O00206 24-839, chain 1 of 2) above

B1: 7E3 monoclonal antibody (antibody, IgG1, V domains shown)
VH: QVTLKESGPGILQPSQTLSLTCSFSGFSLTTYNIGVGWIRQPSGKGLEWLAHIWWNDNIYYNTVLKSRLTFSKDTSNNQVFLKIASVDIADTATYYCIRMAEGRYDAMDYWGQGTSVTVSS
VL: AIQMTQSTSSLSASLGDRVTINCRASQDITNYLNWYQQKPDGTVRLLIYYTSKLHSGAPSRFSGRGSGTDYSLTISNLEQEDIATYFCQQGNTFPWTFGGGTKLEIKR
As for B1, the binding result was “binds” in experiment [1], “binds” in experiment [2] and “no binding (tested: 10 µg/ml)” in experiment [3].

B2: chimeric 7E3 MAb (antibody, V domains shown)
VH: B1 VH
VL: B1 VL
In the case of B2, the binding result in experiment [4] is “binds”.

B3: 15C1 monoclonal antibody (antibody, IgG1, V domains shown)
VH: DVQLQESGPDLIQPSQSLSLTCTVTGYSITGGYSWHWIRQFPGNKLEWMGYIHYSGYTDFNPSLKTRISITRDTSKNQFFLQLNSVTTEDTATYYCARKDPSDGFPYWGQGTLVTVSA
VL: DIVMTQSPATLSVTPGDRVSLSCRASQSISDHLHWYQQKSHESPRLLIKYASHAISGIPSRFSGSGSGTDFTLSIKSVEPEDIGVYYCQNGHSFPLTFGAGTKLELKR
notes: also called 15C1 MAb; 15C1 mouse MAb
On to B3, for which the binding result in experiment [5], in experiment [6] and in [2] was “binds” each time.

B4: chimeric 15C1 MAb (antibody, V domains shown)
VH: B3 VH
VL: B3 VL
notes: also called chimerical 15C1
Regarding B4, in experiment [7], the binding result is recorded as “binds”.

B5: 16G7 monoclonal antibody (antibody, IgG1, V domains shown)
VH: QVKLQESGAELMKPGASVKISCKATGYKFSDYWIEWIKQRPGHGLEWIGEILPGSGSTNYNEDFKDKATFTSDTSSNTAYMQLSSLTSEDSAVYYCAKEERAYYFGYWGQGTTVTVSS
VL: DVLMTQTPLSLPVSLGDQASISCRSSQSLENSNGNTYLNWYLQKPGQSPQLLIYRVSNRFSGVLDRFSGSGSGTDFTLKISRVEAEDLGVYFCLQVTHVPPTFGAGTKLELKR
On to B5, for which the binding result in [8] and in experiment [9] was “binds” each time.

B6: chimeric 18H10 MAb (antibody, V domains shown)
VH: QVQLQQSGADLVRPGALVKLSCTASGFNIKDSYIHWVKKRPEWGLEWIGWTDPENVNSIYDPRFQGKASITADTSSNTAFLQLTSLTSEDTAVYYCARGYNGVYYAMDYWGQGTTVTVSS
VL: QIVLTQSPSIMSASLGEEITLTCSASSSVIYMHWYQQKSGTSPKLLIYRTYNLASGVPSRFSGSGSGTFYSLTISSVEAEDAADYYCHQWSSFPYTFGGGTKLEIKR
On to B6, for which the binding result in experiment [4] is “binds”.
